{
  "source": "paper PMC7954794",
  "about": "“Protein context shapes the specificity of SH3 domain-mediated interactions in vivo” (Nature Communications, 2021)",
  "molecules": {"B1": {"name": "PIN3 (protein, UniProt Q06449 2-215, looked up)", "[PSI+] inducibility protein 3": "SASLINRSLTNIRTELDFLKGSNVISNDVYDQINKSLPAKWDPANAPRNASPASLEYVEALYQFDPQQDGDLGLKPGDKVQLLEKLSPEWYKGSCNGRTGIFPANYVKPAFSGSNGPSNLPPPPQYKAQELQQIPTQNSAASSYQQQPFPPPSTNYYQQPQQQPQQAPPPQQQQQQQQHQSSHSHLKSFGSKLGNAAIFGAGASIGSDIVNNIF"}},
  "system": "Abp1 PPIs",
  "test": "DHFR-PCA of Abp1 SH3-swapped baits (Fig. 2B-D, S2C, S2F);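 as to Protein-protein interaction distance between Abp1 SH3-swapped baits, to ABP1: Euclidean distance between DHFR-PCA score profiles of the baits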;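 as to Protein-protein interaction distance between Abp1 SH3-swapped baits, to BEM1-2: Euclidean distance between DHFR-PCA score profiles of the baits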;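 as to Protein-protein interaction distance between Abp1 SH3-swapped baits, to BOI1: Euclidean distance between DHFR-PCA score profiles of the baits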;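 as to Protein-protein interaction distance between Abp1 SH3-swapped baits, to BZZ1-1: Euclidean distance between DHFR-PCA score profiles of the baits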",
  "type": "cell-based, Saccharomyces cerevisiae",
  "how_it_was_run": "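Interactions were scored by DHFR protein-fragment complementation. DHFR F[1,2]-tagged Abp1 strains, whose SH3 was swapped for yeast or human ortholog domains, were crossed on YPD at 30 °C for 48 h with a 1536-format array of 575 prey-DHFR F[3] strains and 40 negatives, giving four replicates per pair. PCA selection lasted 4 days after double diploid selection.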",
  "key": {"[1]": {"settings": "number of PPIs, difference, Abp1 SH3-swapped with the listed SH3, Fig2D,S2F"}},
  "data": [
    {"molecule": "B1", "values": [
      {"measurement": "Protein-protein interaction distance between Abp1 SH3-swapped baits, to ABP1", "setting": "Abp1 bait with swapped SH3, distance to bait with ABP1 SH3, sheet Fig2C", "value": 11.43},
      {"measurement": "Protein-protein interaction distance between Abp1 SH3-swapped baits, to BBC1", "setting": "distance to Abp1 bait with BBC1 SH3, sheet Fig2C", "value": 11.25},
      {"measurement": "Protein-protein interaction distance between Abp1 SH3-swapped baits, to BEM1-1", "setting": "distance to Abp1 bait with BEM1-1 SH3, sheet Fig2C", "value": 16.56},
      {"measurement": "Protein-protein interaction distance between Abp1 SH3-swapped baits, to BEM1-2", "setting": "distance to Abp1 bait with BEM1-2 SH3, sheet Fig2C", "value": 33.69},
      {"measurement": "Protein-protein interaction distance between Abp1 SH3-swapped baits, to BOI1", "setting": "distance to Abp1 bait with BOI1 SH3, sheet Fig2C", "value": 13.58},
      {"measurement": "Protein-protein interaction distance between Abp1 SH3-swapped baits, to BOI2", "setting": "distance to Abp1 bait with BOI2 SH3, sheet Fig2C", "value": 17.21},
      {"measurement": "Protein-protein interaction distance between Abp1 SH3-swapped baits, to BUD14", "setting": "distance to Abp1 bait with BUD14 SH3, sheet Fig2C", "value": 19.7},
      {"measurement": "Protein-protein interaction distance between Abp1 SH3-swapped baits, to BZZ1-1", "setting": "distance to Abp1 bait with BZZ1-1 SH3, sheet Fig2C", "value": 8.164},
      {"measurement": "Protein-protein interaction distance between Abp1 SH3-swapped baits, to BZZ1-2", "setting": "distance to Abp1 bait with BZZ1-2 SH3, sheet Fig2C", "value": 13.53},
      {"measurement": "Protein-protein interaction distance between Abp1 SH3-swapped baits, to CDC25", "setting": "distance to Abp1 bait with CDC25 SH3, sheet Fig2C", "value": 28.09},
      {"measurement": "Protein-protein interaction distance between Abp1 SH3-swapped baits, to CTTN", "setting": "distance to Abp1 bait with CTTN SH3, sheet Fig2C", "value": 14.08},
      {"measurement": "Protein-protein interaction distance between Abp1 SH3-swapped baits, to CYK3", "setting": "distance to Abp1 bait with CYK3 SH3, sheet Fig2C", "value": 28.76},
      {"measurement": "Protein-protein interaction distance between Abp1 SH3-swapped baits, to DBNL", "setting": "distance to Abp1 bait with DBNL SH3, sheet Fig2C", "value": 8.074},
      {"measurement": "Protein-protein interaction distance between Abp1 SH3-swapped baits, to FUS1", "setting": "distance to Abp1 bait with FUS1 SH3, sheet Fig2C", "value": 21.08},
      {"measurement": "Protein-protein interaction distance between Abp1 SH3-swapped baits, to HCLS1", "setting": "distance to Abp1 bait with HCLS1 SH3, sheet Fig2C", "value": 8.844},
      {"measurement": "Protein-protein interaction distance between Abp1 SH3-swapped baits, to HOF1", "setting": "distance to Abp1 bait with HOF1 SH3, sheet Fig2C", "value": 32.38},
      {"measurement": "Protein-protein interaction distance between Abp1 SH3-swapped baits, to HSE1", "setting": "distance to Abp1 bait with HSE1 SH3, sheet Fig2C", "value": 9.808},
      {"measurement": "Protein-protein interaction distance between Abp1 SH3-swapped baits, to LSB1", "setting": "distance to Abp1 bait with LSB1 SH3, sheet Fig2C", "value": 5.513},
      {"measurement": "Protein-protein interaction distance between Abp1 SH3-swapped baits, to LSB3", "setting": "distance to Abp1 bait with LSB3 SH3, sheet Fig2C", "value": 5.817},
      {"measurement": "Protein-protein interaction distance between Abp1 SH3-swapped baits, to MYO3", "setting": "distance to Abp1 bait with MYO3 SH3, sheet Fig2C", "value": 8.374},
      {"measurement": "Protein-protein interaction distance between Abp1 SH3-swapped baits, to MYO5", "setting": "distance to Abp1 bait with MYO5 SH3, sheet Fig2C", "value": 6.67},
      {"measurement": "Protein-protein interaction distance between Abp1 SH3-swapped baits, to NBP2", "setting": "distance to Abp1 bait with NBP2 SH3, sheet Fig2C", "value": 18.8},
      {"measurement": "Protein-protein interaction distance between Abp1 SH3-swapped baits, to PEX13", "setting": "distance to Abp1 bait with PEX13 SH3, sheet Fig2C", "value": 5.433},
      {"measurement": "Protein-protein interaction distance between Abp1 SH3-swapped baits, to PIN3", "setting": "distance to Abp1 bait with PIN3 SH3, sheet Fig2C", "value": 0.00},
      {"measurement": "Protein-protein interaction distance between Abp1 SH3-swapped baits, to RVS167", "setting": "distance to Abp1 bait with RVS167 SH3, sheet Fig2C", "value": 5.294},
      {"measurement": "Protein-protein interaction distance between Abp1 SH3-swapped baits, to SDC25", "setting": "distance to Abp1 bait with SDC25 SH3, sheet Fig2C", "value": 34.35},
      {"measurement": "Protein-protein interaction distance between Abp1 SH3-swapped baits, to SHO1", "setting": "distance to Abp1 bait with SHO1 SH3, sheet Fig2C", "value": 9.004},
      {"measurement": "Protein-protein interaction distance between Abp1 SH3-swapped baits, to SLA1-1", "setting": "distance to Abp1 bait with SLA1-1 SH3, sheet Fig2C", "value": 30.57},
      {"measurement": "Protein-protein interaction distance between Abp1 SH3-swapped baits, to SLA1-2", "setting": "distance to Abp1 bait with SLA1-2 SH3, sheet Fig2C", "value": 21.49},
      {"measurement": "Protein-protein interaction distance between Abp1 SH3-swapped baits, to SLA1-3", "setting": "distance to Abp1 bait with SLA1-3 SH3, sheet Fig2C", "value": 6.016},
      {"measurement": "Protein-protein interaction distance between Abp1 SH3-swapped baits, to YSC84", "setting": "distance to Abp1 bait with YSC84 SH3, sheet Fig2C", "value": 5.862},
      {"measurement": "PPIs gained by Abp1 - SH3-dependent PPIs gained by Abp1", "setting": "[1]", "value": 29},
      {"measurement": "SH3-dependent PPIs - SH3-dependent PPIs gained by Abp1", "setting": "[1]", "value": 13},
      {"measurement": "SH3-dependent PPIs gained by Abp1", "setting": "number of PPIs, Abp1 SH3-swapped with the listed SH3, DHFR-PCA, Fig2D,S2F", "value": 0}
    ]}
  ]
}
